Experimental data reported in US20240132615A1 (ICHNOS SCIENCES, published 2024).

T1: recombinant human BCMA protein (Acrobiosystems BCA-H522y) (human, UniProt Q02223 1-54)
T1 construct: bought protein
T1 sequence (looked up): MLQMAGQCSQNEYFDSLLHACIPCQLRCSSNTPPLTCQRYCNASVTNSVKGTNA

T2: Biotinylated Human BCMA/TNFRSF17 Protein, His, Avitag (Acrobiosystems BCA-H82E4) (human, UniProt Q02223 1-54, biotinylated)
T2 construct: bought protein; also called biotinylated recombinant human BCMA protein; hBCMA
T2 sequence (looked up): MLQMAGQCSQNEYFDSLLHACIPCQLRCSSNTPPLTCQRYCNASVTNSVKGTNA

T3: human BCMA on cells (NCI-H929, NCI-H929 CD38 KO, MOLP-8) (human, UniProt Q02223 1-184)
T3 construct: whole, on cells; endogenous BCMA of myeloma cell lines
T3 sequence (looked up): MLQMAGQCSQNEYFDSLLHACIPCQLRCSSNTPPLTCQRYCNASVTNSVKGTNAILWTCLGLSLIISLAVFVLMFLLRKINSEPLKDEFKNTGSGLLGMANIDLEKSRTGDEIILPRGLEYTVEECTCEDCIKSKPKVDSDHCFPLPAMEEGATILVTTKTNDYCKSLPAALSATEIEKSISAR


Legend:
[1] = target: T1, recombinant human BCMA protein …; assay: SPR, Fab as analyte, immobilised human BCMA, 1:1 Langmuir
[2] = target: recombinant cynomolgus monkey BCMA protein (Acrobiosystems BCA-C52H7) (cynomolgus monkey, UniProt A0A2K5UD97 1-53); assay: SPR, Fab as analyte, immobilised cynomolgus BCMA, 1:1 Langmuir
Sequence of recombinant cynomolgus monkey BCMA protein (Acrobiosystems BCA-C52H7) (A0A2K5UD97 entry or part of it): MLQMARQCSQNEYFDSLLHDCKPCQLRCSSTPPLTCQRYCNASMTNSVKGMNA

[3] = target: T2, Biotinylated Human BCMA/TNFRSF17 …; assay: SPR, Fab as analyte, biotin-captured human BCMA
[4] = target: T4, biotinylated recombinant cynomolgus monkey BCMA Fc fusion protein (Acrobiosystems BCA-C82F4) (cynomolgus monkey, UniProt A0A2K5UD97 1-53); assay: SPR, Fab as analyte, biotin-captured cynomolgus BCMA-Fc
T4 construct: bought protein; not shown: Fc of the bought fusion protein, not described
T4 sequence (A0A2K5UD97 entry or part of it): as above

[5] = target: T3, human BCMA on cells (NCI-H929, NCI-H929 …); assay: flow cytometry, NCI-H929 cells, one-site fit
[6] = target: T3, human BCMA on cells (NCI-H929, NCI-H929 …); assay: flow cytometry, NCI-H929 cells
[7] = target: T5, Biotinylated Human CD38 Protein, Avitag, His Tag (Acrobiosystems CD8-H82E7) (human, UniProt P28907 43-300, biotinylated); assay: SPR, Fab as analyte, biotin-captured human CD38
T5 construct: bought protein; also called biotinylated recombinant human CD38 protein; human CD38-avi-his

[8] = target: T6, recombinant cynomolgus monkey CD38-ECD-C-his protein (cynomolgus monkey, UniProt Q5VAN0 45-301); assay: SPR, Fab as analyte, captured cynomolgus CD38-his
T6 construct: made in house; Q5VAN0 residues 43-301 (residue 44 deleted) with C-terminal 6-His; also called cynomolgus monkey CD38-C-His; recombinant cynomolgus monkey CD38 protein

Row | Binder | Kd [1] [nM] | Kd [3] [nM] | Kd [4] [nM] | Kd [5] [nM] | Maximum binding (RFI) [6] [RFI] | other results
1 | anti-BCMA-UCP01-A10 FAB (Fab, V domains shown, Fab) VH: QVQLVQSGAEVKKPGSSVKVSCKASGYVFSDHIISWVRQAPGQGLEWMGGIIPHGGAPTYAQKFQGRVTITADESTSTAYMELSSLRSEDTAVYYCARDLFDYYPQGFDYWGQGTLVTVSS VL: not shown | 214 | – | – | – | – | –
2 | anti-BCMA-PP02-C4 FAB (Fab, V domains shown, Fab) VH: EVQLLESGGGLVQPGGSLRLSCAASGFTFTAYDMSWVRQAPGKGLEWVSAISGFGGDTLYADSVKGRFTISRDNSKNTLYLQMNSLRAEDTAVYYCARIGYYYLDSAFDYWGQGTLVTVSS VL: not shown | 608 | – | – | – | – | Kd [2]: 114 nM
3 | anti-BCMA-PP02-B4 FAB (Fab, V domains shown, Fab) VH: EVQLLESGGGLVQPGGSLRLSCAASGFTFSNYDMSWVRQAPGKGLEWVSAISVSGDFTQYADSVKGRFTISRDNSKNTLYLQMNSLRAEDTAVYYCARVGYYLLDSAFDIWGQGTLVTVSS VL: not shown | 648 | – | – | – | – | Kd [2]: 58 nM
4 | anti-BCMA-PP02-F1 FAB (Fab, V domains shown, Fab) VH: EVQLLESGGGLVQPGGSLRLSCAASGFSFSEYAMSWVRQAPGKGLEWVSALSLSGDVTSYADSVKGRFTISRDNSKNTLYLQMNSLRAEDTAVYYCARSPYSRVGDSYYYDYIGFDIWGQGTLVTVSS VL: not shown | 145 | – | – | – | – | Kd [2]: 598 nM
5 | Anti-BCMA-E6-PP02-D2 FAB (Fab, V domains shown, Fab) VH: EVQLLESGGGLVQPGGSLRLSCAASGFTFSYYAMTWVRQAPGKGLEWVSTISQQNEQTKYADSVKGRFTISRDNSKNTLYLQMNSLRAEDTAVYYCARSPYSYLHGYYGFDYWGQGTLVTVSS VL: not shown | – | 0.342 | 0.97 | 6.58 | 36300 | –
6 | anti-BCMA-PP02-E6 FAB (Fab, V domains shown, Fab; also called anti-BCMA-E6; anti-BCMA-E6 Fab) VH: EVQLLESGGGLVQPGGSLRLSCAASGFTFSYYAMTWVRQAPGKGLEWVSTISQNGGQTKYADSVKGRFTISRDNSKNTLYLQMNSLRAEDTAVYYCARSPYSYLHGYYGFDYWGQGTLVTVSS VL: not shown | 18 | – | – | – | – | Kd [2]: 52 nM
7 | Anti-BCMA-E6-PP02-A3 FAB (Fab, V domains shown, Fab) VH: EVQLLESGGGLVQPGGSLRLSCAASGFTFSYYAMTWVRQAPGKGLEWVSTISSQNDITKYADSVKGRFTISRDNSKNTLYLQMNSLRAEDTAVYYCARSPYSYLHGYYGFDYWGQGTLVTVSS VL: not shown | – | 0.33 | 0.915 | 6.37 | 40200 | –
8 | Anti-BCMA-E6-PP02-C7 FAB (Fab, V domains shown, Fab) VH: EVQLLESGGGLVQPGGSLRLSCAASGFTFSYYAMTWVRQAPGKGLEWVSTISQSGLVPKYADSVKGRFTISRDNSKNTLYLQMNSLRAEDTAVYYCARSPYSYLHGYYGFDYWGQGTLVTVSS VL: not shown | – | 0.3 | 1.19 | 6.83 | 38600 | –
9 | Anti-BCMA-E6-PP02-B4 FAB (Fab, V domains shown, Fab) VH: EVQLLESGGGLVQPGGSLRLSCAASGFTFSYYAMTWVRQAPGKGLEWVSTISQPGFDAKYADSVKGRFTISRDNSKNTLYLQMNSLRAEDTAVYYCARSPYSYLHGYYGFDYWGQGTLVTVSS VL: not shown | – | 0.086 | 0.857 | 5.49 | 43500 | –
10 | Anti-BCMA-E6-PP02-B1 FAB (Fab, V domains shown, Fab; also called anti-BCMA-E6-B1; E6-B1) VH: EVQLLESGGGLVQPGGSLRLSCAASGFTFSYYAMTWVRQAPGKGLEWVSTVSQAGYDTKYADSVKGRFTISRDNSKNTLYLQMNSLRAEDTAVYYCARSPYSYLHGYYGFDYWGQGTLVTVSS VL: not shown | – | 0.182 | 0.51 | 3.72 | 34700 | –
11 | Anti-BCMA-E6-PP02-G7 FAB (Fab, V domains shown, Fab) VH: EVQLLESGGGLVQPGGSLRLSCAASGFTFSYYAMTWVRQAPGKGLEWVSTISQQWDVTKYADSVKGRFTISRDNSKNTLYLQMNSLRAEDTAVYYCARSPYSYLHGYYGFDYWGQGTLVTVSS VL: not shown | – | 0.061 | 0.237 | 4.86 | 39400 | –
12 | Anti-BCMA-E6-PP02-G6 FAB (Fab, V domains shown, Fab; also called anti-BCMA-E6-G6; E6-G6) VH: EVQLLESGGGLVQPGGSLRLSCAASGFTFSYYAMTWVRQAPGKGLEWVSTIAQRGGQTKYADSVKGRFTISRDNSKNTLYLQMNSLRAEDTAVYYCARSPYSYLHGYYGFDYWGQGTLVTVSS VL: not shown | – | 0.33 | 2.26 | 5.78 | 46500 | –
13 | Anti-BCMA-E6-PP02-E6 FAB (Fab, V domains shown, Fab; also called anti-BCMA-E6-E6; E6-E6) VH: EVQLLESGGGLVQPGGSLRLSCAASGFTFSYYAMTWVRQAPGKGLEWVSTISQAGRDFKYADSVKGRFTISRDNSKNTLYLQMNSLRAEDTAVYYCARSPYSYLHGYYGFDYWGQGTLVTVSS VL: not shown | – | 0.169 | 0.615 | 5.13 | 43200 | –
14 | Anti-BCMA-E6-PP02-F7 FAB (Fab, V domains shown, Fab) VH: EVQLLESGGGLVQPGGSLRLSCAASGFTFSYYAMTWVRQAPGKGLEWVSTIGQRGFQTKYADSVKGRFTISRDNSKNTLYLQMNSLRAEDTAVYYCARSPYSYLHGYYGFDYWGQGTLVTVSS VL: not shown | – | 0.22 | 0.964 | 5.53 | 44700 | –
15 | anti-BCMA-PP02-A3 FAB (Fab, V domains shown, Fab) VH: EVQLLESGGGLVQPGGSLRLSCAASGFTFSQYAMSWVRQAPGKGLEWVSIISQDGGVTVYADSVKGRFTISRDNSKNTLYLQMNSLRAEDTAVYYCARSPYGGGSYIPHDSWGQGTLVTVSS VL: not shown | 318 | – | – | – | – | –
16 | Anti-BCMA-E6-PP02-G2 FAB (Fab, V domains shown, Fab) VH: EVQLLESGGGLVQPGGSLRLSCAASGFTFSYYAMTWVRQAPGKGLEWVGTISQSVGQVVKYADSVKGRFTISRDNSKNTLYLQMNSLRAEDTAVYYCARSPYSYLHGYYGFDYWGQGTLVTVSS VL: not shown | – | 0.176 | 0.728 | 5.22 | 40500 | –
17 | Anti-CD38-B3-PP11-D1b FAB (Fab, V domains shown, Fab) VH: QVQLVQSGAEVKKPGSSVKVSCKASGIQTRWYSISWVRQAPGQGLEWMGRIIPTGANANYAQKFQGRVTITADESTSTAYMELSSLRSEDTAVYYCARSWPSLGSGWFDIWGQGTLVTVSS VL: not shown | – | – | – | – | – | Kd [7]: 5.8 nM; Kd [8]: 14.6 nM
18 | Anti-CD38-B3-PP11-H1a FAB (Fab, V domains shown, Fab) VH: QVQLVQSGAEVKKPGSSVKVSCKASGQNERMYSISWVRQAPGQGLEWMGRIIPTGANANYAQKFQGRVTITADESTSTAYMELSSLRSEDTAVYYCARSWPSLGSGWFDIWGQGTLVTVSS VL: not shown | – | – | – | – | – | Kd [7]: 15.3 nM; Kd [8]: 17.9 nM
19 | Anti-CD38-B3-PP11-H10 FAB (Fab, V domains shown, Fab) VH: QVQLVQSGAEVKKPGSSVKVSCKASGGDFTLYSISWVRQAPGQGLEWMGRIIPTGANANYAQKFQGRVTITADESTSTAYMELSSLRSEDTAVYYCARSWPHYGSGWFDIWGQGTLVTVSS VL: not shown | – | – | – | – | – | Kd [7]: 6.2 nM; Kd [8]: 22.7 nM
20 | Anti-CD38-B3-PP11-E1 FAB (Fab, V domains shown, Fab) VH: QVQLVQSGAEVKKPGSSVKVSCKASGQHKRVYSISWVRQAPGQGLEWMGRIIPTGANANYAQKFQGRVTITADESTSTAYMELSSLRSEDTAVYYCARSWPSLGSGWFDIWGQGTLVTVSS VL: not shown | – | – | – | – | – | Kd [7]: 10.5 nM; Kd [8]: 26.3 nM
21 | Anti-CD38-B3-PP11-E11 FAB (Fab, V domains shown, Fab) VH: QVQLVQSGAEVKKPGSSVKVSCKASGGDFTLYSISWVRQAPGQGLEWMGRIIPTGANANYAQKFQGRVTITADESTSTAYMELSSLRSEDTAVYYCARSWPSYGKGWFDIWGQGTLVTVSS VL: not shown | – | – | – | – | – | Kd [7]: 2 nM; Kd [8]: 8.9 nM
22 | Anti-CD38-B3-PP11-D11a FAB (Fab, V domains shown, Fab) VH: QVQLVQSGAEVKKPGSSVKVSCKASGGDFTLYSISWVRQAPGQGLEWMGRIIPTGANANYAQKFQGRVTITADESTSTAYMELSSLRSEDTAVYYCARSWPILGNGWFDIWGQGTLVTVSS VL: not shown | – | – | – | – | – | Kd [7]: 8.2 nM; Kd [8]: 17.3 nM
23 | anti-BCMA-PP02-D3 FAB (Fab, V domains shown, Fab; also called anti-BCMA-D3; anti-BCMA-D3 Fab) VH: EVQLVESGGGLIQPGGSLRLSCAASGFIFSHYEMNWVRQAPGKGLEWVSAIGQGGNTVYADSVKGRFTISRDNSKNTLYLQMNSLRAEDTAVYYCARVPYSYSGYSGADIWGQGTLVTVSS VL: not shown | 15 | – | – | – | – | Kd [2]: 40 nM
24 | anti-BCMA-UCP01-E9 FAB (Fab, V domains shown, Fab) VH: EVQLLESGGGLVQPGGSLRLSCAASGFTFSNYAMSWVRQAPGKGLEWVSVISERGAVTVYADSVKGRFTISRDNSKNTLYLQMNSLRAEDTAVYYCARSPYGYSSGVEGYFGFDVWGQGTLVTVSS VL: not shown | 10 | – | – | – | – | Kd [2]: 236 nM
